One block for each binder: values may come before it.
What was measured:
[1] = target: T1, THAP1 chemokine-binding domain/IgG1-Fc fusion constructed as described in Example 18B (THAP1 amino acids … (human, UniProt Q5RCE4 140-213 (Pongo abelii entry))); experiment: surface plasmon resonance (Biacore), Chemotrap-I coupled to the chip, CCL5/RANTES at 25, 50, 100 and 200 nM as analyte
T1 construct: Secreted with an immunoglobulin kappa light chain signal peptide (left out); also called Chemotrap-I; Chemotrap; not shown: human IgG1-Fc polypeptide from the N-terminal hinge region to the native C-terminus (hinge, CH2, CH3)
T1 sequence: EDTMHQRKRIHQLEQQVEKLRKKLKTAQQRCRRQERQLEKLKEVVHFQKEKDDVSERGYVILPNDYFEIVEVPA
Source text: (§1) In this Example, surface plasmon resonance (SPR) was used to determine the dissociation constant for the binding of Rantes/CCL5 to a THAP1 chemokine binding domain/IgG1-Fc fusion prepared as described in Example 18B. All SPR measurements were made using a Biacore 3000 system (Biacore, Uppsala Sweden). […] Dextran layer free biosensors, C1 type, were used to assay specific interaction between Rantes/CCL5 and the THAP1 chemokine-binding domain/IgG1-Fc fusion. Purified recombinant human Rantes/CCL5 (purchased from Chemicon) were used as analyte protein at a fixed concentration in the fluid phase (10 mM HEPES pH 7.4, 150 mM NaCl, 3 mM EDTA, 0.005% P20 surfactant, as a running buffer), and at a constant flow of 20 μl/minute. To determine the binding kinetics, association and dissociation curves were established for several increasing concentration of chemokine: 25 nM, 50 nM, 100 nM and 200 nM for CCL5, respectively. Chemokine was injected during the association phase for 4 minutes (20 μl/minute). The dissociation phase was carried out over a period of 5 minutes. Between each phase of association-dissociation, the flow cells were regenerated by injection of 0.05% SDS (30 seconds at a flow rate of 20 μl/minute). Biaevaluation (Biacore) software was used for calculations of association and dissociation kinetic constants. […]
(§2) The dissociation constant was calculated to be 49 nM.

[2] = target: T1, THAP1 chemokine-binding domain/IgG1-Fc …; experiment: SPR (Biacore 3000); Fc fusion amine-coupled to a C1 sensor chip, Rantes/CCL5 as analyte at 25, 50, 100 and 200 nM; KD=kd/ka
Source text: as §1, §2

[3] = target: T2, human THAP1 (THanatos-Associated-Protein-1), full length (human, UniProt Q9NVV9 1-213); experiment: yeast two-hybrid, both orientations
T2 construct: these tags are not written into the chain; also called hTHAP1; THAP1 wild type
T2 sequence: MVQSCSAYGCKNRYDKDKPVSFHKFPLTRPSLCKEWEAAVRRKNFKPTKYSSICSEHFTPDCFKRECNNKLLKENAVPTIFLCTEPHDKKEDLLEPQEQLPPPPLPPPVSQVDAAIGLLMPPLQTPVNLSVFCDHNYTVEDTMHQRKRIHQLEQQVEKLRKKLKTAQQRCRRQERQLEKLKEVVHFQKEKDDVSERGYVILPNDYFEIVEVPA
Protocol: To identify potential protein partners of THAP1, screening of the two-hybrid HEVEC cDNA library was performed using as a bait the human THAP1 full length cDNA inserted into the […] two-hybrid system 3 vector pGBKT7 (Clontech). Briefly, the full-length coding region of THAP1 was amplified by PCR from HEVEC cDNA with primers 2HMR10 (5′-[…]-3′) (SEQ ID NO: 187) and 2HMR9 (5′-[…]-3′) (SEQ ID NO: 188), digested with EcoRI and BamHI, and cloned in frame downstream of the Gal4 Binding Domain (Gal4-BD) in pGBKT7 vector to generate pGBKT7-THAP1. pGBKT7-THAP1 was then cotransformed with the pGAD424-HEVEC cDNA library in yeast strain AH109 (Clontech). 1.5×10⁷ yeast transformants were screened and positive protein interactions were selected by His and Ade double auxotrophy according to manufacturer's instructions ([…] two-hybrid system 3, Clontech). The plates were incubated at 30° C. for 5 days. Plasmid DNA was extracted from these positive colonies and used to verify the specificity of the interaction by cotransformation in AH109 with pGBKT7-THAP1 or control baits pGBKT7, pGBKT7-lamin and pGBKT7-hevin. […] Positive interaction between THAP1 and Par4 was confirmed using full length Par4 bait (pGBKT-Par4) and prey (pGADT7-Par4). […]

[4] = target: T3, THAP1ΔQRCRR mutant (deletion of residues 168-172) (human, UniProt Q9NVV9 1-213); experiment: yeast two-hybrid, Par4 wt bait
T3 sequence: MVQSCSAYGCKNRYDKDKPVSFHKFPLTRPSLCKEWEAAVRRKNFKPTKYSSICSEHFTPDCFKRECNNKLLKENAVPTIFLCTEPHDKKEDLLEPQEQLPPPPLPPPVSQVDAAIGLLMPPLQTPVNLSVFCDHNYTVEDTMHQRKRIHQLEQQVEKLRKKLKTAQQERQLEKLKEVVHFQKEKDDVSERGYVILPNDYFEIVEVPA
Protocol: for mutant THAP1ΔQRCRR. The resulting PCR fragments were digested with EcoRI and BamHI, and cloned in frame downstream of the Gal4 Binding Domain (Gal4-BD) in pGBKT7 two-hybrid vector (Clontech) to generate pGBKT7-THAP1-RR/AA and -Δ(QRCRR), or downstream of the Enhanced Green Fluorescent Protein (EGFP)ORF in pEGFP.C2 vector (Clontech) to generate pEGFP.C2-THAP1-RR/AA and -Δ(QRCRR). THAP1RR/AA and THAP1ΔQRCRR THAP1 mutants were then tested in the three THAP1/Par4 interaction assays (two-hybrid assay, in vitro THAP1/Par4 interaction assay, in vivo THAP1/Par4 interaction assay) as described above for the THAP1-C1, -C2, -C3, -N1, -N2 or -N3 mutants.

[5] = target: T4, THAP1-C2 deletion mutant (amino acids 120-213) (human, UniProt Q9NVV9 120-213); experiment: yeast two-hybrid, Par4 wt bait
T4 construct: Gal4 fusion, in vitro translation product or GFP fusion according to assay
T4 sequence: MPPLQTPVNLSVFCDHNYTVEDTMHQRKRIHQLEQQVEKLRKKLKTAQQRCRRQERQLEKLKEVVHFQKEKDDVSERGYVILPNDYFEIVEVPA

[6] = target: T5, THAP1-N2 deletion mutant (amino acids 1-166) (human, UniProt Q9NVV9 1-166); experiment: yeast two-hybrid, Par4 wt bait
T5 construct: Gal4 fusion, in vitro translation product or GFP fusion according to assay
T5 sequence: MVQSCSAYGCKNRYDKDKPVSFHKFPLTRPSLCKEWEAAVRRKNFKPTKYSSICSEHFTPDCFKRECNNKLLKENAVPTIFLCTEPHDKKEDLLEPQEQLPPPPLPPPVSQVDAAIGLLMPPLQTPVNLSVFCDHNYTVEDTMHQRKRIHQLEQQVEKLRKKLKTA

[7] = target: T6, THAP1-C1 deletion mutant (amino acids 90-213) (human, UniProt Q9NVV9 90-213); experiment: yeast two-hybrid, Par4 wt bait
T6 construct: Gal4 fusion, in vitro translation product or GFP fusion according to assay; also called THAP1-CL; THAP1ΔTHAP
T6 sequence: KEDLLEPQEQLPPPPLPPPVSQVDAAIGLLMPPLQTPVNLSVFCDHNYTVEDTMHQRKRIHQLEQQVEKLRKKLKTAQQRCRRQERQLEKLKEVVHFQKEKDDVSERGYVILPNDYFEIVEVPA

[8] = target: T7, THAP1-N1 deletion mutant (amino acids 1-90) (human, UniProt Q9NVV9 1-90); experiment: yeast two-hybrid, Par4 wt bait
T7 construct: Gal4 fusion, in vitro translation product or GFP fusion according to assay; also called zinc finger domain of THAP1
T7 sequence: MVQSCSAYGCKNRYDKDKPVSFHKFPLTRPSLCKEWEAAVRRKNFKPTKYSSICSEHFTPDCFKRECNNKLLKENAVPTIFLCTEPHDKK

[9] = target: T8, THAP1-C3 deletion mutant (amino acids 143-213) (human, UniProt Q9NVV9 143-213); experiment: yeast two-hybrid, Par4 wt bait
T8 construct: Gal4 fusion, in vitro translation product or GFP fusion according to assay
T8 sequence: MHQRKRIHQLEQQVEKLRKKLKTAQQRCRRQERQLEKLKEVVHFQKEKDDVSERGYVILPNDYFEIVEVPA

[10] = target: T9, THAP1-N3 deletion mutant (amino acids 1-192) (human, UniProt Q9NVV9 1-192); experiment: yeast two-hybrid, Par4 wt bait
T9 construct: Gal4 fusion, in vitro translation product or GFP fusion according to assay
T9 sequence: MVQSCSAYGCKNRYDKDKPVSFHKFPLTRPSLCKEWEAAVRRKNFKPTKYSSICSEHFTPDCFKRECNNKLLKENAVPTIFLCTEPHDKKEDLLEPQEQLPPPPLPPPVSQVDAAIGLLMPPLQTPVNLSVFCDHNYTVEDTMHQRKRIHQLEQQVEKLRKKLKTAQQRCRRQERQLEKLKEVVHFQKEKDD

[11] = target: T10, human THAP2, full length (human, UniProt Q9H0W7 1-228); experiment: yeast two-hybrid with Par-4 wild type bait
T10 construct: Two-hybrid fusion or 35S-labelled in vitro translation product
T10 sequence (Q9H0W7 whole entry, the tested form may be a part): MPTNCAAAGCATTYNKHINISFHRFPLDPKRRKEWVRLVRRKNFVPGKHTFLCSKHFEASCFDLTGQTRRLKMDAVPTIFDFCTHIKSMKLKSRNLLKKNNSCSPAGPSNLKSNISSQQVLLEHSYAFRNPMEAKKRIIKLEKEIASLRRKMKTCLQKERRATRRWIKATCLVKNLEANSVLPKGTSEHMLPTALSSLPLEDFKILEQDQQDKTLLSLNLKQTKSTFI
Protocol: (§3) To assess whether THAP2 and THAP3 are able to interact with Par-4, yeast two hybrid assays using Par-4 wild type bait (FIG. 10B) and in vitro GST pull down assays (FIG. 10C), were performed as described above (Examples 4 and 5). As shown in FIGS. 10B and 10C, THAP2 and THAP3 are able to interact with Par-4. A sequence alignment showing the comparison of the THAP domain and the PAR4-binding domain between THAP1, THAP2 and THAP3 is shown in FIG. 10A.

[12] = target: T11, human THAP3, full length (human, UniProt Q8WTV1 1-239); experiment: yeast two-hybrid with Par-4 wild type bait
T11 construct: Two-hybrid fusion or 35S-labelled in vitro translation product
T11 sequence: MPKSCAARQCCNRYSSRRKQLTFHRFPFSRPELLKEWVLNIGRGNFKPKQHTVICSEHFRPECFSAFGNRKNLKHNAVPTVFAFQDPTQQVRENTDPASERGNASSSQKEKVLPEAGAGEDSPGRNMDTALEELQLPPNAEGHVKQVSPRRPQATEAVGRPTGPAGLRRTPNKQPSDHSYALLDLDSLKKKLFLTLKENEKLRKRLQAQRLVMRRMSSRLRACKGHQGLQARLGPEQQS
Protocol: as §3

- koff [1]: 0.00229 s⁻¹
- kon [1]: 46400 M⁻¹ s⁻¹
- Kd [2]: 49 nM
B1: purified recombinant human Rantes/CCL5 (purchased from Chemicon) (ligand)
chain: SPYSSDTTPCCFAYIARPLPRAHIKEYFYTSGKCSNPAVVFVTRKNRQVCANPEKKWVREYINSLEMS
notes: Bought protein; also called recombinant Rantes/CCL5 human chemokine

- binding result [3]: binds
- binding result [4]: no binding
- binding result [5]: binds
- binding result [6]: no binding
- binding result [7]: binds
- binding result [8]: no binding
- binding result [9]: binds
- binding result [10]: binds
- binding result [11]: binds
- binding result [12]: binds
B2: human prostate apoptosis response-4 (PAR4), full length (other)
chain: MATGGYRTSSGLGGSTTDFLEEWKAKREKMRAKQNPPGPAPPGGGSSDAAGKPPAGALGTPAAAAANELNNNLPGGAPAAPAVPGPGGVNCAVGSAMLTRAPPARGPRRSEDEPPAASASAAPPPQRDEEEPDGVPEKGKSSGPSARKGKGQIEKRKLREKRRSTGVVNIPAAECLDEYEDDEAGQKERKREDAITQQNTIQNEAVNLLDPGSSYLLQEPPRTVSGRYKSTTSVSEEDVSSRYSRTDRSGFPRYNRDANVSGTLVSSSTLEKKIEDLEKEVVTERQENLRLVRLMQDKEEMIGKLKEEIDLLNRDLDDIEDENEQLKQENKTLLKVVGQLTR
notes: Gal4-BD or Gal4-AD fusion in two-hybrid; also called Par4 wild type

Reference: patent US20060270596A1 (CENTRE NATIONAL DE LA RECHERCHE SCIENTIFIQUE CNRS, published 2006)
